From patent publication US20040038400A1 (TRUSTEES OF DARTMOUTH COLLEGE, published 2004)

Molecular target: T1, WC-1 (Neurospora, UniProt Q01371 1-1167)
T1 construct: Tested either as native protein in Neurospora nuclear extracts or as 'full-length WC-1' made in reticulocyte lysate; also called White Collar-1; WC-1 protein
Test: EMSA supershift with nuclear extracts; complexes absent with extracts from wc-1 ER45 or wc-2 KO strains
From the text: The presence of WC-1 and WC-2 in the LRE-bound complexes was confirmed by the absence of complexes in binding reactions performed using nuclear protein extracts from wc-1^ER45 (loss-of-function) or wc-2^KO strains (Collett, et al. (2002) Genetics 160:149). […] Because WC-1 and WC-2 are known to complex with FRQ (Denault, et al. (2001) EMBO J. 20:109; Cheng, et al. (2001) EMBO J. 20:101; Merrow, et al. (2001) EMBO J. 20:307), the presence of FRQ in the complexes bound to the LREs was also determined using FRQ antiserum and extracts from an frq^KO strain. FRQ was not in the dark- or light-induced complexes bound to the LREs, nor was FRQ necessary for the formation of the complexes.
Binding reactions using nuclear protein extracts contained 1× binding buffer, […] KCl, 0.1 μg poly(dI-dC), 1 μl probe, 0.5 μl of normal rabbit sera (Pocono Rabbit Farm, Canadensis, Pa.), and 3 μg of nuclear protein extract, which was added last to the binding reactions, in a total volume of 20 μl. In reactions that contained antisera, 1 μl anti-WC-1, 1 μl anti-WC-2, or 0.5 μl anti-FRQ was used. Binding reactions using in vitro translated proteins contained 1× binding buffer, 1 μg poly(dI-dC), 1 μl probe, and 6 μl of the in vitro translation reaction in a total volume of 20 μl. […]

T1 sequence (Q01371 whole entry): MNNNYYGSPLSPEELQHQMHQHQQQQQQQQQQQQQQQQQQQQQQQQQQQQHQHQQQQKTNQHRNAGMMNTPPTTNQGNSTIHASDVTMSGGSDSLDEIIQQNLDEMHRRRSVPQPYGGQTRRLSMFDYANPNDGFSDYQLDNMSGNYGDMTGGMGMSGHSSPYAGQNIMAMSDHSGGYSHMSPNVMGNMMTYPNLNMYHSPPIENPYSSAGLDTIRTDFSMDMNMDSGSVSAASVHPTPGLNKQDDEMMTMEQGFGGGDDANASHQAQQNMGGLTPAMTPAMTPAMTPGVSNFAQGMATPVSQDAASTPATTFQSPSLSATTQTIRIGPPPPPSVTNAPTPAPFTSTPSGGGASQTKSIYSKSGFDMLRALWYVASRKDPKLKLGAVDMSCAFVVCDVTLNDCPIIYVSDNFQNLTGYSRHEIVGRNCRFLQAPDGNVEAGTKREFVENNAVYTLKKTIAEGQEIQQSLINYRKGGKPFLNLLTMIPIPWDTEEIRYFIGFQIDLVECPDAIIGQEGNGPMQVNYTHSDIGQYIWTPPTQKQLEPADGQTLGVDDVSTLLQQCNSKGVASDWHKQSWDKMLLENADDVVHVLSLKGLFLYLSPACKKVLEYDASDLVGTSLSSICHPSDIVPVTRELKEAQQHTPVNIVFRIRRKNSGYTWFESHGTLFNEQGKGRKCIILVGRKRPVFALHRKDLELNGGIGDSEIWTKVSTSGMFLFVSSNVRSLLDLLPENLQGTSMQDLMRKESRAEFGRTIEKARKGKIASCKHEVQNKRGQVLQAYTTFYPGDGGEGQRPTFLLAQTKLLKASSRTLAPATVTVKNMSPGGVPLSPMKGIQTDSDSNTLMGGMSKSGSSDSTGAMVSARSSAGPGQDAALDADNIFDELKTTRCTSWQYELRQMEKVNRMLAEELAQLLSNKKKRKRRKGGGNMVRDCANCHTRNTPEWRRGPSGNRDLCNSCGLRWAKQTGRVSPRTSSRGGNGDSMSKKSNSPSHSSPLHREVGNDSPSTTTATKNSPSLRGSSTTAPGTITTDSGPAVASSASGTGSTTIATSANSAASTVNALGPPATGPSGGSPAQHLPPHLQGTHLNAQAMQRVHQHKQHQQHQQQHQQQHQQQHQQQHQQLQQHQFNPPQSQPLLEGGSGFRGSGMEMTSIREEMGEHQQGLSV

B1: WC-2 (other, Neurospora, UniProt P78714 1-530, looked up)
chain: MSHGQPPPGSSMYGFGAMGMGSGMGSGMGSGMGTGMGTGMGTGMSASQMTSDPQDMMSLLDTSVFPGFDGMSMSLDVGDSMSNPFTPVSVPPPLPAGNAGPSHVGVCGGHGAPDQLFSPDDLIATSMSSAGPMIATPTTTTSGPSGGPSSGGGSTLTEFTKRRNWPAKVVEELQDWEHILDANGRIKHVSPSVEPLTGYKPPEIIDLFLRDLIHPDDVGVFTAELNEAIATGSQLRLFYRFRKKDGNWTIFETVGHAHIAAAKFAPNPQNQSPFCQAVFMMARPYPTKNAGLLDSFLEHKIENERLKRRIAELRREEQEEQEESHRTWRMSQEGRSDVTPSDDTATQMGMTPFYIPMNAQADVMMPPPSQPASSLNIALTRENLEGIAGSRPDSIREKMLRYEGNHADTIEMLTGLKYQEGERSHGITTGNASPTLIKGDAGIAIPLDRDPRTGEKKKKIKVAEEYVCTDCGTLDSPEWRKGPSGPKTLCNACGLRWAKKEKKKNANNNNNGGGIGGHNDIHTPMGDHMG
notes: Transcription factor; Tested either as native protein in Neurospora nuclear extracts or as 'full length WC-2' made in reticulocyte lysate; also called White Collar-2; WC-2 protein
B1: binds.
